Test results from US20070014767A1.

B1: peptide P18(343-358) (peptide)
peptide: LYNQHNPGASAAPCCA
B2: peptide P29(313-335) (peptide)
peptide: HEPKGYHANFCLGPCPYIWSLDT
B3: peptide P11(319-333) (peptide)
peptide: HANFCLGPCPYIWSLA
B4: peptide P12(322-335) (peptide)
peptide: FCLGPCPYIWSLDTA

Legend:
[1] = biological target: TGFβ1 (human recombinant) (human) (UniProt P01137); test: affinity labelling of MV-1-Lu cells with 125I-TGFβ1, titration of P144; conditions: scale: times the molar concentration of 125I-TGFβ1
[2] = biological target: TGFβ1 (human recombinant) (human) (UniProt P01137); test: flow cytometry; inhibition of binding of TGFβ1-biotin to MV-1-Lu cell receptors, peptide 420 µg/ml, peptide incubated with TGFβ1-biotin
[3] = biological target: TGFβ1 (human recombinant) (human) (UniProt P01137); test: cell-based or functional assay
[4] = biological target: TGFβ1 cell receptors on MV-1-Lu cells (mink); test: flow cytometry; inhibition of binding of TGFβ1-biotin to MV-1-Lu cell receptors, peptide 420 µg/ml, peptide incubated with the cells
[5] = biological target: TGFβ1 cell receptors on MV-1-Lu cells (mink); test: cell-based or functional assay

TGFβ1 (human recombinant) (human), sequence (P01137 279-390 limits assumed): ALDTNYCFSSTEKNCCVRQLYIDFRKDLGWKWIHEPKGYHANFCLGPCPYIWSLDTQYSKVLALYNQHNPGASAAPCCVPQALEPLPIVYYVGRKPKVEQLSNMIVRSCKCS

Molecule | peptide concentration at which inhibition of 125I-TGFβ1 binding to the cell receptors is lost [1] | Cytometry (% inhibition) [2] [%] | Bioassay (% inhibition) of TGFβ1 activity: growth of MV-1-Lu cells, TGFβ1 200 pg/ml, peptide 200 µg/ml [3] [%] | Cytometry (% inhibition) [4] [%] | Bioassay (% inhibition) of TGFβ1 activity: growth of MV-1-Lu cells, TGFβ1 200 pg/ml, peptide 200 µg/ml [5] [%]
peptide P144(729-742) | 200000 | 80 | 88 |  | 
B1 |  |  |  | 6.5 | 18.2
B2 |  |  |  | 92.3 | 77.6
B3 |  |  |  | 86 | 40
B4 |  |  |  | 77 | 96
